The target of test [1] is T1, full-length beta-Catenin (Uniprot ID P35222) (Homo sapiens (Human), UniProt P35222 1-781).
T1 construct: The assay text says 'full-length beta-Catenin (Uniprot ID P35222)'; No tags are stated for the FP assay; also called bCat; B-Catenin
T1 sequence: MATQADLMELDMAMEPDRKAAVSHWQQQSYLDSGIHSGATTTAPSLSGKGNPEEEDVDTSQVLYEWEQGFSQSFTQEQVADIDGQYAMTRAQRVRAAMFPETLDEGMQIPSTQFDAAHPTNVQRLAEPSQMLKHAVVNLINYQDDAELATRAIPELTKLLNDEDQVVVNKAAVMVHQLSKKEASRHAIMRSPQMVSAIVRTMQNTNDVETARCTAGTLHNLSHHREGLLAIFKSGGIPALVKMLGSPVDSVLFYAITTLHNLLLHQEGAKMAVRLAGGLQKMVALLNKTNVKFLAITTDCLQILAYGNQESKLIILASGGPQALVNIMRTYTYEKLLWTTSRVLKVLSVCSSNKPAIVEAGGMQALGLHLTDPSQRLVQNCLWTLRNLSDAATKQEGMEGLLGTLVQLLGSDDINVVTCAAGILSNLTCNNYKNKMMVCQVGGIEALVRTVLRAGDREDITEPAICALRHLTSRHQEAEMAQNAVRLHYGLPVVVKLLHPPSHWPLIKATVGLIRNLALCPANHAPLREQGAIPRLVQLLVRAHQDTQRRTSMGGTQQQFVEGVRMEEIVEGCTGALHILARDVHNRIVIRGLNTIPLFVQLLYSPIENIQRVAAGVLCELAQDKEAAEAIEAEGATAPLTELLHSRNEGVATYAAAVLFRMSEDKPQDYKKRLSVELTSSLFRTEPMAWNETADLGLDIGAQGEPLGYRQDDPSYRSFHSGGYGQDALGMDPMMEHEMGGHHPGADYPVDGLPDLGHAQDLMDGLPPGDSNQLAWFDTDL
Nature of the test: fluorescence polarization competition; 10 nM full-length beta-catenin with 10 nM 5FAM-labeled TCF4 (residues 10-53) probe as competitor. As to the method:
(§1) The plate was incubated protected from light for 60 minutes at 20° C. prior to read. Reads were performed on a CLARIOstar plate reader (BMG Labtech) in duplicate, and data were fitted to a 1:1 binding model with hill slope using an in-house script. All provided concentrations are final concentrations.

The target in test [2] is T2, full-length beta-Catenin (Uniprot ID P35222) (Homo sapiens (Human), UniProt P35222 2-781).
T2 construct: The FP assay uses 10 nM 'full-length beta-Catenin (Uniprot ID P35222)'; also called bCat; B-Catenin
T2 sequence: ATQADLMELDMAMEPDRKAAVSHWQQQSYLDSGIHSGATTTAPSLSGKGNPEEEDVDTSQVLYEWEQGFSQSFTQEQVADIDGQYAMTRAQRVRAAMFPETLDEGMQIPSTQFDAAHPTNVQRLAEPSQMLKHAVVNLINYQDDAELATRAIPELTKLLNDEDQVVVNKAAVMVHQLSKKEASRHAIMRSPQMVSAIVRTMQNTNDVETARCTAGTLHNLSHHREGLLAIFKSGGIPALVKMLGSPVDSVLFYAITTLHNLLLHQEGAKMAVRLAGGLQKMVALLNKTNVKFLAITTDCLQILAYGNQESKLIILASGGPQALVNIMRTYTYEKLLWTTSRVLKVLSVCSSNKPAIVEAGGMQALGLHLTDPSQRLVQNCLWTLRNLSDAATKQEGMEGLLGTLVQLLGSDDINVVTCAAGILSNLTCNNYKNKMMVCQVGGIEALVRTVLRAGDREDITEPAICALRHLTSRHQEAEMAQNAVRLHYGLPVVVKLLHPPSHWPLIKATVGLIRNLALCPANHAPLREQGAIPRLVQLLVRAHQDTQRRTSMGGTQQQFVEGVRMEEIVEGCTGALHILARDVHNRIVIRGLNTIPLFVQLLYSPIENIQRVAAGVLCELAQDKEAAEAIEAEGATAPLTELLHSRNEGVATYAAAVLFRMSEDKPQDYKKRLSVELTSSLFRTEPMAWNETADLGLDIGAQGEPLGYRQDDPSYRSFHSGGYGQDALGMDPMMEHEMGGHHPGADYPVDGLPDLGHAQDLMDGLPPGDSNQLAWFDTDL
Nature of the test: fluorescence polarization competition; 10 nM full-length beta-catenin, 10 nM 5FAM-TCF4(10-53) probe. Here is the method:
as §1

The target of test [3] is T3, B-cat-Halo (UniProt P35222 1-781, HaloTag NanoBRET 618 Ligand bound to the HaloTag in the assay).
T3 construct: Transfected into HEK293 cells for the NanoBRET assay; intracellular; also called beta-catenin HaloTag fusion; not shown: HaloTag
T3 sequence (looked up): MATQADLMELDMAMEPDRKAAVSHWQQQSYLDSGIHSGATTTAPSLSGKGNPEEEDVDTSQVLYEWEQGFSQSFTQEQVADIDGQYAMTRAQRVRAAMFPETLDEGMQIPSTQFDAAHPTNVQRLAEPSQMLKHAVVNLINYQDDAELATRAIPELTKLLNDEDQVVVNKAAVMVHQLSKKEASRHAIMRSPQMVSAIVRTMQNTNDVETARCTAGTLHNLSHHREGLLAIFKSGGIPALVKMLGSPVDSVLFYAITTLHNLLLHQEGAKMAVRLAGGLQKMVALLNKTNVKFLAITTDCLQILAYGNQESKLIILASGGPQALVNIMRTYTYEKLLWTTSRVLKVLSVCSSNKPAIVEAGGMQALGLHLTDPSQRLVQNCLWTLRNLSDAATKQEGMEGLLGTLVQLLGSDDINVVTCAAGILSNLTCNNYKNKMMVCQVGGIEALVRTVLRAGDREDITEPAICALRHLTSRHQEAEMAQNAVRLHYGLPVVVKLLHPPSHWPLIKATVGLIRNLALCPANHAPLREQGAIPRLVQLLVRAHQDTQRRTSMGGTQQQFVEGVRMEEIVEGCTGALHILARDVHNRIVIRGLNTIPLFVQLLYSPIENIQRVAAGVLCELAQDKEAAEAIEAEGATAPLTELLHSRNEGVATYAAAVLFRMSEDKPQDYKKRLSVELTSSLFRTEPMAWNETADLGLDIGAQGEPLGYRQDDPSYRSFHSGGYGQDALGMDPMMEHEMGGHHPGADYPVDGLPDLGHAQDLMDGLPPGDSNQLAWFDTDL
Nature of the test: NanoBRET absolute IC50 in HEK293 cells; Bcat-Halo, competitor TCF4-Luc. In general terms: In BRET a luciferase serves as donor, and the signal depends on an acceptor being close.

In test [4] the target is T4, full-length beta-Catenin (Uniprot ID P35222) (Homo sapiens (Human), UniProt P35222 1-781).
T4 construct: Tags of the recombinant protein are not described for the FP assay; also called bCat; B-Catenin
T4 sequence: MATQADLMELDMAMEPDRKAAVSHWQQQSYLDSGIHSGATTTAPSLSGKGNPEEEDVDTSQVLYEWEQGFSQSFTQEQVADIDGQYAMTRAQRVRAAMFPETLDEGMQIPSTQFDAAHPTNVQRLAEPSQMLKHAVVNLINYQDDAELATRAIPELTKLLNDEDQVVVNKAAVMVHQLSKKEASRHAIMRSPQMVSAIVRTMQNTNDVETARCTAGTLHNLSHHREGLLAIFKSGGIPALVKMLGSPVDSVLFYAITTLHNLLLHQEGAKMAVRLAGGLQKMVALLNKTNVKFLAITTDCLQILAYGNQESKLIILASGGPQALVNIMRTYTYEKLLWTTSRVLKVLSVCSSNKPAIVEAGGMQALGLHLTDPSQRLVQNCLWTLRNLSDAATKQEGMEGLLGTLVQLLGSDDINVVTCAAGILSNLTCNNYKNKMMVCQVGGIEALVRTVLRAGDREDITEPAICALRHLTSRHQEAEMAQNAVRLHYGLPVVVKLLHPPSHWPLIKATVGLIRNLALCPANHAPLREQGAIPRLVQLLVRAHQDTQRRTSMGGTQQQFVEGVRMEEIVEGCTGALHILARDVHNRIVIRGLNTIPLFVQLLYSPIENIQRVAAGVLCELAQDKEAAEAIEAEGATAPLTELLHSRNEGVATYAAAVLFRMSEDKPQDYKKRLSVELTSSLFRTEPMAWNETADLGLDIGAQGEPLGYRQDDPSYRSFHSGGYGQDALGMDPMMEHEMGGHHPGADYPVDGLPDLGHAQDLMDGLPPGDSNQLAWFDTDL
Nature of the test: fluorescence polarization competition; full-length beta-catenin, competitor 5FAM-TCF4(10-53) probe. An outline of the steps: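 Data fitted to 1:1 binding model with hill slope from duplicate reads taken after 60 minutes at 20° C. in the dark.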
On the technique in general: Polarisation of emitted light reports the rotation of a fluorescent probe.

Starred links: 1 amine or outer side, 2 acyl side, 3 side chain; linkers in the order of their positions; H or OH if unused. Positions of bridges follow the written chain, without caps; N, C: chain ends. Non-standard residues stand in square brackets, D forms with d. Primed or numbered codes have the meaning given here. *: point of attachment. B5(16) = 2-amino-2-(pent-4-en-1-yl)hept-6-enoic acid = 2,2-bis(4-pentenyl)glycine (stitching residue), C=CCCCC(CCCC=C)(N[*:1])C(=O)[*:2]; B5(4) = 2,2-bis(4-pentenyl)glycine = 2-amino-2-(pent-4-en-1-yl)hept-6-enoic acid (stitching residue), C=CCCCC(CCCC=C)(N[*:1])C(=O)[*:2]; PyrS2 = (S)-3-amino-1-((pent-4-en-1-yloxy)carbonyl)pyrrolidine-3-carboxylic acid, C=CCCCOC(=O)N1CC[C@@](N[*:1])(C(=O)[*:2])C1; Bta = N[C@@H](Cc1csc2ccccc12)C(=O)O; αAllylPro = C=CC[C@@]1(C(=O)O)CCCN1; S8 = C=CCCCCCC[C@](C)(N)C(=O)O; iPr = CC(C)*

B1: I-217 (peptide)
peptide: Ac-[αAllylPro]DA[B5(4)]DEAAXV[S8]FWQ-NH2
modifications: staple 1-4, 4-11; not fully specified (residue 9); printed as Ac-PL3-Asp-Ala-B5-Asp-Glu-Ala-Ala-MeTyr-Val-S8-Phe-Trp-Gln-NH2
notes: Stapled (stitched) peptide; also called Ac-PL3-Asp-Ala-B5-Asp-Glu-Ala-Ala-MeTyr-Val-S8-Phe-Trp-Gln-NH2
B1: the concentration for half-maximal inhibition (IC50) (usually the concentration needed to halve the response being measured) in test [1] was 1960 nM.

B2: I-1647 (peptide)
peptide: Ac-[αAllylPro]NY[B5(16)]DQK(iPr)AFL[PyrS2]F[Bta]Q-NH2
modifications: staple 1-4, 4-11
notes: Stapled peptide; also called Ac-PL3-Asn-Tyr-B5-Asp-Gln-iPrLys-Ala-Phe-Leu-PyrS2-Phe-BztA-Gln-NH2
In test [2], B2 registered a 50% inhibitory concentration (IC50) of 2350 nM.

B3: I-1458 (peptide)
peptide: Ac-[αAllylPro]DL[B5(4)]DEAAFQ[S8]F[Bta]Q-NH2
modifications: staple 1-4, 4-11
On to B3, for which the values for the half-inhibitory concentration (IC50) in test [3] and in test [4] were 18100 nM and 26 nM, respectively.

The values above are taken from patent US20240116985A1 (published 2024).
